Assay results: US20230416345A1, “NEW TYPE II COLLAGEN BINDING PROTEINS” (Navigo Proteins GmbH, priority 2020, published 2023)

B1: CID 212001 (SEQ ID NO: 41), tetramer of SEQ ID NO: 2 (designed binder, not shown: small tags and cut ends)
chain: IAAKFDEAQSAADSEILHLPNLTEQQRHYFRRWLSDDPSVSTHILTQAQHLNDDQAPKIAAKFDEAQSAADSEILHLPNLTEQQRHYFRRWLSDDPSVSTHILTQAQHLNDDQAPKIAAKFDEAQSAADSEILHLPNLTEQQRHYFRRWLSDDPSVSTHILTQAQHLNDDQAPKIAAKFDEAQSAADSEILHLPNLTEQQRHYFRRWLSDDPSVSTHILTQAQHLNDDQAPKSAWSHPQFEK
B2: 210987 (SEQ ID NO: 36) (designed binder, not shown: small tags and cut ends)
chain: IAAKFDEAQQAAFYEILHLPNLTEQQRNYFIQWLRDDPSVSLEVLGTAQRLNDSQAPKIAAKFDEAQQLAFYQILHLENLTEEQRNAFIQSLRDDPSVSLEVLGEAIKLNLSQAPK
B3: CID 212000 (SEQ ID NO: 39), dimer of SEQ ID NO: 2 with linker between the monomers (designed binder, not shown: small tags and cut ends)
chain: IAAKFDEAQSAADSEILHLPNLTEQQRHYFRRWLSDDPSVSTHILTQAQHLNDDQAPKGGGGSGGGGSGGGGSGGGGSIAAKFDEAQSAADSEILHLPNLTEQQRHYFRRWLSDDPSVSTHILTQAQHLNDDQAPKSAWSHPQFEK
B4: CID 211999 (SEQ ID NO: 38), dimer of SEQ ID NO: 2 (directly joint monomers) (designed binder, not shown: small tags and cut ends)
chain: IAAKFDEAQSAADSEILHLPNLTEQQRHYFRRWLSDDPSVSTHILTQAQHLNDDQAPKIAAKFDEAQSAADSEILHLPNLTEQQRHYFRRWLSDDPSVSTHILTQAQHLNDDQAPKSAWSHPQFEK

Columns and labels:
[1] = molecular target: human type II collagen (type II collagen alpha I chain) (human) (UniProt P02458); test: ELISA, collagen coated on the plate, dilution series of the binder, detection via StrepTag, A 450-600 nm
[2] = molecular target: human type II collagen (type II collagen alpha I chain) (human) (UniProt P02458); test: SPR, Biacore 3000, Langmuir 1:1 model
[3] = molecular target: human type II collagen (type II collagen alpha I chain) (human) (UniProt P02458); test: ELISA (KD determination by ELISA, Example 5)

| Binder | Kd [1] | Kd [2] | Kd [3] |
| --- | --- | --- | --- |
| B1 | 0.3 nM | < 0.5 nM |  |
| B2 |  | 169 nM | 460 nM |
| B3 | 6.38 nM | 180 nM |  |
| B4 | 8.06 nM | 127 nM |  |
